Results: paper PMC4691241, “Activation of ULK Kinase and Autophagy by GABARAP Trafficking from the Centrosome Is Regulated by WAC and GM130” (Molecular Cell, 2015)

T1: Strep-Tag II-GM130, purified (human, UniProt Q08379 1-1002)
T1 construct: human GM130 isoform 1; also called Strep II-GM130; purified GM130; source: purified
T1 sequence (looked up): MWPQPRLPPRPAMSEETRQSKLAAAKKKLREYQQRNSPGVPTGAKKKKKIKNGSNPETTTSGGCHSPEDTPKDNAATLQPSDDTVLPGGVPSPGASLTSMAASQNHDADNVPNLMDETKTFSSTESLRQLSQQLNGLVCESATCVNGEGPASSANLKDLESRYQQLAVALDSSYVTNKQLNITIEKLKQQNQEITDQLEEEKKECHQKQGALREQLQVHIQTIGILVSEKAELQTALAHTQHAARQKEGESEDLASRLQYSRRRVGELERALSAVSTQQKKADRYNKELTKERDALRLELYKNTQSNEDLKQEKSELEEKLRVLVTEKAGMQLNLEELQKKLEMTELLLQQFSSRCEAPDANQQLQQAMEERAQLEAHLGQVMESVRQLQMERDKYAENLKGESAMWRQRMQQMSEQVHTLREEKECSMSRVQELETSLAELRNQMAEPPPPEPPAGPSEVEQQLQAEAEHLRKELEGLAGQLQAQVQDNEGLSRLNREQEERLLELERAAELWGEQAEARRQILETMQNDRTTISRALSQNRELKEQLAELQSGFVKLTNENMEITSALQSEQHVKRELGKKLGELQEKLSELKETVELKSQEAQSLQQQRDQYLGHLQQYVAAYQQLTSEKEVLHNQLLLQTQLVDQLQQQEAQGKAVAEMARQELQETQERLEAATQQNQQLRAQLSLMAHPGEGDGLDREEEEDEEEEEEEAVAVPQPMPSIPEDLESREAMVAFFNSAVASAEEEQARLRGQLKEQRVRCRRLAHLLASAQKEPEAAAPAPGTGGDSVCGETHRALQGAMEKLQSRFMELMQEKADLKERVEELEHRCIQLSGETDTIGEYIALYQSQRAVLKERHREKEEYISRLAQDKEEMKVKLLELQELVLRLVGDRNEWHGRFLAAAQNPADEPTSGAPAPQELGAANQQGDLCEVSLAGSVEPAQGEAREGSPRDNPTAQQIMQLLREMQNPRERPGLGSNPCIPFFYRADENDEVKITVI


Legend:
[1] = target: T1, Strep-Tag II-GM130, purified; assay: pull-down; purified Strep II-GM130 incubated with recombinant WAC 320–647 before binding to recombinant GST or GST-GABARAP beads, immunoblot; conditions: both partners purified
[2] = target: T1, Strep-Tag II-GM130, purified; assay: pull-down; GST-WAC FL or ΔCC incubated with purified Strep-Tag II-GM130; GST-WAC monitored by Ponceau S; conditions: both partners purified

Row | Binder | binding result [1] | binding result [2]
1 | recombinant WAC 320–647 (domain or fragment, human, UniProt Q9BTA9 320-647, looked up, human WAC isoform 1, residues 320-647 (the C-terminal half, CT); source: recombinant) TTPSTSSASGLNPTSAPPTSASAVPVSPVPQSPIPPLLQDPNLLRQLLPALQATLQLNNSNVDISKINEVLTAAVTQASLQSIIHKFLTAGPSAFNITSLISQAAQLSTQAQPSNQSPMSLTSDASSPRSYVSPRISTPQTNTVPIKPLISTPPVSSQPKVSTPVVKQGPVSQSATQQPVTADKQQGHEPVSPRSLQRSSSQRSPSPGPNHTSNSSNASNATVVPQNSSARSTCSLTPALAAHFSENLIKHVQGWPADHAEKQASRLREEAHNMGTIHMSEICTELKNLRSLVRVCEIQATLREQRILFLRQQIKELEKLKNQNSFMV | binds | –
2 | GST-WAC FL (natural protein, human, UniProt Q9BTA9 1-647, looked up, human WAC isoform 1, full length; also called recombinant GST-WAC; source: recombinant) MVMYARKQQRLSDGCHDRRGDSQPYQALKYSSKSHPSSGDHRHEKMRDAGDPSPPNKMLRRSDSPENKYSDSTGHSKAKNVHTHRVRERDGGTSYSPQENSHNHSALHSSNSHSSNPSNNPSKTSDAPYDSADDWSEHISSSGKKYYYNCRTEVSQWEKPKEWLEREQRQKEANKMAVNSFPKDRDYRREVMQATATSGFASGMEDKHSSDASSLLPQNILSQTSRHNDRDYRLPRAETHSSSTPVQHPIKPVVHPTATPSTVPSSPFTLQSDHQPKKSFDANGASTLSKLPTPTSSVPAQKTERKESTSGDKPVSHSCTTPSTSSASGLNPTSAPPTSASAVPVSPVPQSPIPPLLQDPNLLRQLLPALQATLQLNNSNVDISKINEVLTAAVTQASLQSIIHKFLTAGPSAFNITSLISQAAQLSTQAQPSNQSPMSLTSDASSPRSYVSPRISTPQTNTVPIKPLISTPPVSSQPKVSTPVVKQGPVSQSATQQPVTADKQQGHEPVSPRSLQRSSSQRSPSPGPNHTSNSSNASNATVVPQNSSARSTCSLTPALAAHFSENLIKHVQGWPADHAEKQASRLREEAHNMGTIHMSEICTELKNLRSLVRVCEIQATLREQRILFLRQQIKELEKLKNQNSFMV | – | binds
